Target: Acinetobacter baumannii AdeJ multidrug efflux pump (Acinetobacter baumannii AB0057)
Experiment: cryo-EM structure; single-particle cryo-EM of 10 uM AdeJ-nanodisc (MSP 1E3D1, E. coli total lipid extract) incubated with 20 uM TP-6076 for 1 h; 2.91 Å; asymmetric trimer of access, binding and extrusion protomers

Substance: Acinetobacter baumannii AdeJ multidrug efflux pump (natural protein)
- stoichiometry N: 3

— article PMC8805024
